# Data: US20140193401A1 (published 2014)
# B1: 1B7 Fab (Fab)
# chain: DIQMTQSPALMSASPGEKVTMTCSASSSVSFMYWYQQKPRSSPKPWIYLTSNLPSGVPARFSGSGSGTSYSLTISSMEAEDAATYYCQQWSSHPPTFGSGTKLEIKRGGGGSGGGGSGGGGSGGGGSEVQLQQSGSELVRPGASVKLSCKASGYKFTSYWMHWVKQRPGQGLEWIGNIFPGSGSTNYDEKFNSKATLTVDTSSNTAYMQLSSLTSEDSAVYYCTRWLSGAYFDYWGQGTTLTVSSASGA
# Biological target: pertussis toxin holotoxin (Bordetella pertussis, UniProt P04977 35-269; P04978 31-226; P04979 32-227; P0A3R5 43-152; P04981 36-133)
# Assay: cell-based or functional assay
binder,measurement,value
B1,"In Vitro Neutralization (nM), minimum protective concentration, CHO clustering assay",42 nM
